Target: PeSy1‐His recombinant protein (Saccharothrix yanglingensis Hhs.015)
Experiment: MST; PeSy1‐His labelled with protein labelling kit RED, in PBST (PBS with 0.05% Tween 20); serially diluted RSy1‐GST in 16 standard treated capillaries; Monolith NT.115, excitation power 40%, MST power medium; GST as reference control; three biological repeats

Kd: 8.77 µM
Substance: RSy1‐GST recombinant protein (natural protein)
